Test results as given in PMC8784115 (Proceedings of the National Academy of Sciences of the …, 2022).
Values belong to the binder of their own block, whether it stands above or below them. No end group written: not given here. Alexa594 = Alexa594 fluorescent dye

Tests used:
[1] = molecular target: T1, TAZ1 domain of CREB-binding protein (CBP), mouse CBP residues 340 to 439 (mouse, UniProt P45481 340-439); experiment: fluorescence polarisation
[2] = molecular target: T1, TAZ1 domain of CREB-binding protein …; experiment: fluorescence polarisation; remark: listed apart in the source
[3] = molecular target: T1, TAZ1 domain of CREB-binding protein …; experiment: NMR titration
[4] = molecular target: preformed complex of 15N-TAZ1 and HIF-1α (mouse | human, UniProt P45481 340-439; Q16665 776-826); experiment: NMR titration
Chain of preformed complex of 15N-TAZ1 and HIF-1α (P45481 340-439, one chain of several): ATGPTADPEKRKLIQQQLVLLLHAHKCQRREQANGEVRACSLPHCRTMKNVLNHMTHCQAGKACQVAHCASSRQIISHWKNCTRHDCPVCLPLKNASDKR

[5] = molecular target: T1, TAZ1 domain of CREB-binding protein …; experiment: fluorescence polarisation; remark: listed apart in the source

T1 sequence (P45481 340-439): as the sequence (P45481 340-439, one chain of several) above

binding result [3]: binds
binding result [4]: binds
B3: CITED APAA peptide (CITED2 216-269 with the nonproline residues of the LPEL motif mutated to alanine) (peptide)
chain: GSHMSNVIDTDFIDEEVLMSLVIEMGLDRIKEAPAAWLGQNEFDFMTDFVCKQQPSRVS

binding result [5]: binds
B4: Alexa594-labeled HIF-1α peptide (C800V, labelled at C780) (peptide)
chain: GSHMSDLAC(Alexa594)RLLGQSMDESGLPQLTSYDVEVNAPIQGSRNLLQGEELLRALDQVN

The next lines start with the binder.

B1: Alexa594-labeled CITED 216-269 peptide (labelled at C261) (peptide)
chain: GSHMSNVIDTDFIDEEVLMSLVIEMGLDRIKELPELWLGQNEFDFMTDFVC(Alexa594)KQQPSRVS
binding result [1]: binds

B2: Alexa594-labeled CITED APAA peptide (labelled at C261) (peptide)
chain: GSHMSNVIDTDFIDEEVLMSLVIEMGLDRIKEAPAAWLGQNEFDFMTDFVC(Alexa594)KQQPSRVS
binding result [2]: binds
